Reference: article PMC4117764

Target: GST-tagged p21C-terminal peptide
Experiment: pull-down

extent of PCNA depletion: > 95%
Substance: proliferating cell nuclear antigen (PCNA), endogenous (from UniProt P12004 1-261) (natural protein)
